According to article doi:10.1101/2023.12.01.569544:

Molecular target: HIV-1 capsid A14C/E45C/W184A/M185A (HIV-CA) (HIV-1)
Experiment: SEC

For “HIV-1 capsid A14C/E45C/W184A/M185A (HIV-CA) (natural protein)”, the stoichiometry N was 6.
